These results are taken from PMC5727262, “Molecular mechanism of K65 acetylation-induced attenuation of Ubc9 and the NDSM interaction” (Scientific Reports, 2017).

Broadly, the Kd is the concentration at which binding is half-saturated.

This assay addresses Ac-Ubc9K65 (Ubc9 acetylated at K65), P63279. Briefly: ITC; 2 μl additions of peptide to 200 μl of WT Ubc9 or Ac-Ubc9K65; 25 °C; pH 8.0, 20 mM potassium phosphate, 100 mM NaCl; iTC200; fitted assuming 1:1 binding stoichiometry.

Ac-Ubc9K65 (Ubc9 acetylated at K65), P63279, sequence (P63279 whole entry): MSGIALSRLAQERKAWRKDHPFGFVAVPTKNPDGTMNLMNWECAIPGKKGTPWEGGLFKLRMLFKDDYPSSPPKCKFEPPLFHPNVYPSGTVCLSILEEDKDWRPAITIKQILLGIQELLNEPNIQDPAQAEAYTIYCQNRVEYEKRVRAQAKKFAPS

For the molecule VKVEVKEEEESSSN (modifications not checked) [CBP NDSM peptide], the Kd came to 105 µM.
